According to IntAct's records for PubMed 26455797:

B1: CCAAT/enhancer-binding protein alpha (Homo sapiens), P49715-1 (parent)
chain: MESADFYEAEPRPPMSSHLQSPPHAPSSAAFGFPRGAGPAQPPAPPAAPEPLGGICEHETSIDISAYIDPAAFNDEFLADLFQHSRQQEKAKAAVGPTGGGGGGDFDYPGAPAGPGGAVMPGGAHGPPPGYGCAAAGYLDGRLEPLYERVGAPALRPLVIKQEPREEDEAKQLALAGLFPYQPPPPPPPSHPHPHPPPAHLAAPHLQFQIAHCGQTTMHLQPGHPTPPPTPVPSPHPAPALGAAGLPGPGSALKGLGAAHPDLRASGGSGAGKAKKSVDKNSNEYRVRRERNNIAVRKSRDKAKQRNVETQQKVLELTSDNDRLRKRVEQLSRELDTLRGIFRQLPESSLVKAMGNCA
partner: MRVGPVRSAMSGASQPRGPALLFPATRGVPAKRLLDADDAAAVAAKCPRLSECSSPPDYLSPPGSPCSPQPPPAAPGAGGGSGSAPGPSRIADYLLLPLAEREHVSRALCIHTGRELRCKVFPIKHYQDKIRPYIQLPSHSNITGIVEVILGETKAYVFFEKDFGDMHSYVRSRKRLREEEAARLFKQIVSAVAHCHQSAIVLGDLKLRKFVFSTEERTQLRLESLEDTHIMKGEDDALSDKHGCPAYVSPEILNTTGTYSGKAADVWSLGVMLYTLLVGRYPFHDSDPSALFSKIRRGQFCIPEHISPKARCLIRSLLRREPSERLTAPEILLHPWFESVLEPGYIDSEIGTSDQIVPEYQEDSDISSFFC

Variants of: B1
Details: with TRIB1, Q96RU8-1

Effect of a mutation on the interaction, decreasing interaction strength:
MESADFYEAEPRPPMSSHLQSPPHAPSSAAFGFPRGAGPAQPPAPPAAPEPLGGACEHETSIDISAYIDPAAFNDEFLADLFQHSRQQEKAKAAVGPTGGGGGGDFDYPGAPAGPGGAVMPGGAHGPPPGYGCAAAGYLDGRLEPLYERVGAPALRPLVIKQEPREEDEAKQLALAGLFPYQPPPPPPPSHPHPHPPPAHLAAPHLQFQIAHCGQTTMHLQPGHPTPPPTPVPSPHPAPALGAAGLPGPGSALKGLGAAHPDLRASGGSGAGKAKKSVDKNSNEYRVRRERNNIAVRKSRDKAKQRNVETQQKVLELTSDNDRLRKRVEQLSRELDTLRGIFRQLPESSLVKAMGNCA [I55A]
MESADFYEAEPRPPMSSHLQSPPHAPSSAAFGFPRGAGPAQPPAPPAAPEPLGGICEHATSIDISAYIDPAAFNDEFLADLFQHSRQQEKAKAAVGPTGGGGGGDFDYPGAPAGPGGAVMPGGAHGPPPGYGCAAAGYLDGRLEPLYERVGAPALRPLVIKQEPREEDEAKQLALAGLFPYQPPPPPPPSHPHPHPPPAHLAAPHLQFQIAHCGQTTMHLQPGHPTPPPTPVPSPHPAPALGAAGLPGPGSALKGLGAAHPDLRASGGSGAGKAKKSVDKNSNEYRVRRERNNIAVRKSRDKAKQRNVETQQKVLELTSDNDRLRKRVEQLSRELDTLRGIFRQLPESSLVKAMGNCA [E59A]
MESADFYEAEPRPPMSSHLQSPPHAPSSAAFGFPRGAGPAQPPAPPAAPEPLGGICEHETAIDISAYIDPAAFNDEFLADLFQHSRQQEKAKAAVGPTGGGGGGDFDYPGAPAGPGGAVMPGGAHGPPPGYGCAAAGYLDGRLEPLYERVGAPALRPLVIKQEPREEDEAKQLALAGLFPYQPPPPPPPSHPHPHPPPAHLAAPHLQFQIAHCGQTTMHLQPGHPTPPPTPVPSPHPAPALGAAGLPGPGSALKGLGAAHPDLRASGGSGAGKAKKSVDKNSNEYRVRRERNNIAVRKSRDKAKQRNVETQQKVLELTSDNDRLRKRVEQLSRELDTLRGIFRQLPESSLVKAMGNCA [S61A]
MESADFYEAEPRPPMSSHLQSPPHAPSSAAFGFPRGAGPAQPPAPPAAPEPLGGICEHETSDDISAYIDPAAFNDEFLADLFQHSRQQEKAKAAVGPTGGGGGGDFDYPGAPAGPGGAVMPGGAHGPPPGYGCAAAGYLDGRLEPLYERVGAPALRPLVIKQEPREEDEAKQLALAGLFPYQPPPPPPPSHPHPHPPPAHLAAPHLQFQIAHCGQTTMHLQPGHPTPPPTPVPSPHPAPALGAAGLPGPGSALKGLGAAHPDLRASGGSGAGKAKKSVDKNSNEYRVRRERNNIAVRKSRDKAKQRNVETQQKVLELTSDNDRLRKRVEQLSRELDTLRGIFRQLPESSLVKAMGNCA [I62D]
MESADFYEAEPRPPMSSHLQSPPHAPSSAAFGFPRGAGPAQPPAPPAAPEPLGGICEHETSIDDSAYIDPAAFNDEFLADLFQHSRQQEKAKAAVGPTGGGGGGDFDYPGAPAGPGGAVMPGGAHGPPPGYGCAAAGYLDGRLEPLYERVGAPALRPLVIKQEPREEDEAKQLALAGLFPYQPPPPPPPSHPHPHPPPAHLAAPHLQFQIAHCGQTTMHLQPGHPTPPPTPVPSPHPAPALGAAGLPGPGSALKGLGAAHPDLRASGGSGAGKAKKSVDKNSNEYRVRRERNNIAVRKSRDKAKQRNVETQQKVLELTSDNDRLRKRVEQLSRELDTLRGIFRQLPESSLVKAMGNCA [I64D]
MESADFYEAEPRPPMSSHLQSPPHAPSSAAFGFPRGAGPAQPPAPPAAPEPLGGICEHETSIDISAAIDPAAFNDEFLADLFQHSRQQEKAKAAVGPTGGGGGGDFDYPGAPAGPGGAVMPGGAHGPPPGYGCAAAGYLDGRLEPLYERVGAPALRPLVIKQEPREEDEAKQLALAGLFPYQPPPPPPPSHPHPHPPPAHLAAPHLQFQIAHCGQTTMHLQPGHPTPPPTPVPSPHPAPALGAAGLPGPGSALKGLGAAHPDLRASGGSGAGKAKKSVDKNSNEYRVRRERNNIAVRKSRDKAKQRNVETQQKVLELTSDNDRLRKRVEQLSRELDTLRGIFRQLPESSLVKAMGNCA [Y67A]
MESADFYEAEPRPPMSSHLQSPPHAPSSAAFGFPRGAGPAQPPAPPAAPEPLGGICEHETSIDISAYDDPAAFNDEFLADLFQHSRQQEKAKAAVGPTGGGGGGDFDYPGAPAGPGGAVMPGGAHGPPPGYGCAAAGYLDGRLEPLYERVGAPALRPLVIKQEPREEDEAKQLALAGLFPYQPPPPPPPSHPHPHPPPAHLAAPHLQFQIAHCGQTTMHLQPGHPTPPPTPVPSPHPAPALGAAGLPGPGSALKGLGAAHPDLRASGGSGAGKAKKSVDKNSNEYRVRRERNNIAVRKSRDKAKQRNVETQQKVLELTSDNDRLRKRVEQLSRELDTLRGIFRQLPESSLVKAMGNCA [I68D]
